Results taken from patent publication US20040018515A1, “Compositions selective for adenosine diphosphate and methods of using same” (priority 2002, published 2004).

Experiments:
[1] = ADP SPA screening of ADP aptamer clones; assay type: binding; conditions: 1 μM 3H-ADP; vs. clone R0; FIG. 27
Procedure: Mini-prepped plasmid DNA and corresponding sequence (Table 4) were obtained from Lark Technologies. Any sequence that differed by more than two nucleotides from all other ADP aptamer clones was considered to be unique for the purposes of screening. “Unique” clones were PCR amplified from purified plasmid DNA using the original 5′-primer used in the selections (JD18.25B; SEQ ID NO: 17) and a new 3′-primer, 5′-[…]-3′ (JD18.122.A; 200 nM scale, 46-mer) Tm ˜58° C.; SEQ ID NO: 72). This primer adds a 3′-sequence tag to the transcribed RNA molecules which allows the aptamer clones to be immobilized onto the surface of an NEN streptavidin coated flash plate via base pairing with a biotinylated DNA capture oligo (MK08.112A; 5′-biotin-[…]-3′; SEQ ID NO: 73).
NEN flashplates used in the ADP SPA screen and competition binding studies were prepared by incubating the individual wells with 40 pmol of MK08.112A biotinylated capture probe in 22 μl of PBS Buffer: BupH (0.05% tRNA, 0.025% Tween 20) with and shaking at 650 RPM, 15 min. […] Treated wells were incubated with 30 μl of 1 μM ^3H-ADP in 1× Selection Buffer for 30 s with shaking at 650 RPM and then assessed for ADP-mediated signal by quantification on a TopCount, ^3H SPA scintillation counter.
Clones were initially assessed for the ability to yield ADP-mediated signal in the ADP SPA.

[2] = SPA competitive binding of ADP aptamer clones (cold ADP vs other adenosine nucleoside derivatives); conditions: competitive binding analysis; FIG. 29
Procedure: NEN flashplates used in the ADP SPA screen and competition binding studies were prepared by incubating the individual wells with 40 pmol of MK08.112A biotinylated capture probe in 22 μl of PBS Buffer: BupH (0.05% tRNA, 0.025% Tween 20) with and shaking at 650 RPM, 15 min. Excess capture probe was removed from the wells by washing with 1×PBS 3 times and inverting plate with force to remove liquid and blotting them dry on paper towels. Crude transcription of RNA transcribed with capture probe sequence (5 μl) in 25 μl 1×PBS was incubated in designated wells with shaking at 650 RPM for 30 min. Excess aptamer was removed by washing with 1×PBS 3 times and blotting as before. Treated wells were incubated with 30 μl of 1 μM ^3H-ADP in 1× Selection Buffer for 30 s with shaking at 650 RPM and then assessed for ADP-mediated signal by quantification on a TopCount, ^3H SPA scintillation counter.
The best ADP binders, e.g., clones 1, 2, 11, 12, 14, and 16 were subsequently tested for ADP/ATP discrimination by competition with either cold ADP or ATP (FIG. 28). Clones such as F01 (clone #11), whose SPA signal was competed off with the lowest concentration of ADP, i.e., the best ADP binder, and correspondingly the highest concentration of ATP, i.e., the worst ATP binder, were considered to be ADP selective.

[3] = SPA KD determination for ADP aptamer F01, ATP; assay type: binding
Procedure: (§1) The specificity of the ADP aptamer clone F01 was characterized using a variety of nucleoside analogues and mimetics as shown in FIG. 30. NEN flashplates used in the ADP assay were prepared as described above using 150 pmol ADP clone F01 ( in 20 μl 1×PBS incubated in designated wells with shaking at 650 RPM for 30 min). Excess F01 aptamer was removed by washing with 1×PBS 3-times and blotting as before. Treated wells were incubated with 30 μl of 1 μM ^3H-ADP in 1× Selection Buffer for 30 s with shaking at 650 RPM and then assessed for ADP-mediated signal by quantification on a TopCount, ^3H SPA scintillation counter. Thereafter, 1 μl of each test compound was added to the appropriate wells and the plate shaken at 650 RPM for 30 s prior to recounting on TopCount, ^3H SPA scintillation counter. Titration of each test compound was continued with subsequent 1 μl additions up to 10 mM final concentration. The dissociation constant KD was estimated from the IC50 of the competitive binding curve.
This impurity confounds precise determination of ADP aptamer selectivity by SPA competition.

[4] = SPA KD determination for ADP aptamer F01, nucleoside analogs and mimetics; assay type: binding; conditions: SPA competition; KD estimated from IC50; FIG. 30
Procedure: as §1

B1: GGACGGATCGCGTGATGACGAGGGGAATGAACACCCCGGACAATCAGACACGGTCATCTCACACACCTCCCTGA (nucleic acid)
chain: GGACGGATCGCGTGATGACGAGGGGAATGAACACCCCGGACAATCAGACACGGTCATCTCACACACCTCCCTGA
modifications: RNA, all phosphodiester, T or U not given here
- ADP-mediated signal in the SPA screening assay above background signal [1]: more than 2.5 fold
- selectivity for ADP compared to other adenosine nucleoside derivatives (AMP, ATP, cAMP) [2]: highly selective for ADP
- KD for ATP relative to KD for ADP ([3]; SPA competition, KD estimated from IC50): at least 70 fold
- selectivity for ADP over ATP relative to what preliminary studies indicated ([3]; after column purification of ATP): approximately 4 fold
- KD values of other nucleoside derivatives and mimetics relative to KD for ADP [4]: more than 300 fold
